From publication PMC10998907 (2024)

Assays:
Experiment in all cases: BLI
[1] = biological target: T1, NiV-RBP global head domain, His-tagged (Nipah virus, UniProt Q9IH62, biotinylated for BLI only (EZ-link Sulfo-NHS-LC-Biotin))
T1 chain: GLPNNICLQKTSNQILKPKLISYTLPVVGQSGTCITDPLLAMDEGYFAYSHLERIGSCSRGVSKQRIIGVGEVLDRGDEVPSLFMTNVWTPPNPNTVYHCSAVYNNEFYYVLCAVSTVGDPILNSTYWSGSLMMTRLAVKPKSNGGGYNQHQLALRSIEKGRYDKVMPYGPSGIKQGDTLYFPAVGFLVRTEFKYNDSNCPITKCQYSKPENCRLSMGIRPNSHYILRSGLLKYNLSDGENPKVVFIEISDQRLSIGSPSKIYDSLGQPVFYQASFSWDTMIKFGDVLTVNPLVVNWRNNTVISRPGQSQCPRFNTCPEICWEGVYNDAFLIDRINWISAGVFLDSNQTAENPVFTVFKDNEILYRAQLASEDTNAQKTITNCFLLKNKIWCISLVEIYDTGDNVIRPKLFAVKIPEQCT

[2] = biological target: T2, HeV-RBP global head domain, His-tagged (Hendra virus, UniProt O89343 183-602, biotinylated for BLI only (EZ-link Sulfo-NHS-LC-Biotin))
T2 sequence (O89343 183-602): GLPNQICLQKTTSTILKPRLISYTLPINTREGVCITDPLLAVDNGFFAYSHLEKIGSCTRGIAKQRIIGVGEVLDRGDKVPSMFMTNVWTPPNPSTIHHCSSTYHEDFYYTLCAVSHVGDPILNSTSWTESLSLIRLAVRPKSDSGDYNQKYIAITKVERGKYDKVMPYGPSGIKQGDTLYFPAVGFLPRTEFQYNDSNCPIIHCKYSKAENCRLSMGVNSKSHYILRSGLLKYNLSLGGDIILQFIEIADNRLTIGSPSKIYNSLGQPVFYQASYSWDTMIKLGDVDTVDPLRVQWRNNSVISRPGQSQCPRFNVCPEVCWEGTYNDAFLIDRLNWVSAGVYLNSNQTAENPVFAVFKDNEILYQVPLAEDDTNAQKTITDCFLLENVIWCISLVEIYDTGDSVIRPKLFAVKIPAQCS

[3] = biological target: T1, NiV-RBP global head domain, His-tagged
[4] = biological target: T2, HeV-RBP global head domain, His-tagged; remark: listed apart in the source

B1: 41-6 Fab fragment (Fab, V domains shown)
VH: EVQLVQSGGGLVQPGGSLRLSCAASGFTVSSNYMSWVRQAPGKGLEWVSAISGSGGSTYYADSVKGRFTISRDNSKNTLYLQMNSLRAEDTAVYYCARDREDIVVVPAPRGYYYYYYMDVWGQGTTVTVSS
VL: QSVVTQPPSVSAAPGQKVTISCSGSSSNIGTNHLSWYQQVPGTAPKLLIYDNNKRPSGIPDRFSGSKSGTSASLAISGLQSEDEADYYCATWDDSLHAWVFGGGTKLTVL
[1]
  koff: 0.0002 s⁻¹
[2]
  koff: 0.00018 s⁻¹
[3]
  Kd: 3.6 nM
[4]
  Kd: 5.4 nM
